To fix the notation:
T1: EsCas13d, nuclease-dead (Eubacterium siraeum, UniProt B0MS50, R295A;H300A;R849A;H854A)
T1 sequence: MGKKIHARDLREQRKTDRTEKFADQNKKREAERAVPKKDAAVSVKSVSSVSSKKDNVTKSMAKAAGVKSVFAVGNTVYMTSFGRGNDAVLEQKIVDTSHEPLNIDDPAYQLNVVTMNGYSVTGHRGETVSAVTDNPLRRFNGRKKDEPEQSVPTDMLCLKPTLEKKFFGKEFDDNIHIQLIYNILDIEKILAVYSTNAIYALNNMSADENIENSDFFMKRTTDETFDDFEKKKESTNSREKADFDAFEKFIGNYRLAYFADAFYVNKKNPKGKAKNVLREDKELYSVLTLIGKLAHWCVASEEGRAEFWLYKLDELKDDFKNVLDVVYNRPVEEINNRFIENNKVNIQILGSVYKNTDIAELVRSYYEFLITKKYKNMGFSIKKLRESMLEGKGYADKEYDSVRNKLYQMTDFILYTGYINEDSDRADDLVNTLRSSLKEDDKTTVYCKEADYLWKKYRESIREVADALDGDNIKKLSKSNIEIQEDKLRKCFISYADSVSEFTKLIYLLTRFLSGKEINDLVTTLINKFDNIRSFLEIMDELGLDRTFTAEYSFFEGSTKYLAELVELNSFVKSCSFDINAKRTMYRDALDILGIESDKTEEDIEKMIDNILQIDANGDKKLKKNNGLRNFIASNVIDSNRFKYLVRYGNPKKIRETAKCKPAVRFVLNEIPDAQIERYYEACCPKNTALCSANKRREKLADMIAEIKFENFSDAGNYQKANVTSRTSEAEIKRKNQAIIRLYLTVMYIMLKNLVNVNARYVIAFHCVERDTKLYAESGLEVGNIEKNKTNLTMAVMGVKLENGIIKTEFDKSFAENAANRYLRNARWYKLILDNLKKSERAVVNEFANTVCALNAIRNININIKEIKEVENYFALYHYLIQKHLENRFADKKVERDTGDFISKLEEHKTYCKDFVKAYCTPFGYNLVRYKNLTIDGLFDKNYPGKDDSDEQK

B1: target 3 U21C (mixed)
RNA 1: CACCCGUGCAAAAUUGCAGGGGUCUAAAACGACCUGAAUAUUUCAGAUCAAA
RNA 2: GGGAAUGGAUCCACAUCUACGAAUUCGUUUCUGAUCUGAAAUAUUCAGGUCUGCAGAUCGGAAGAGCACACGU
B2: target 3 insA 3' of 22,insG 3' of 1 (mixed)
RNA 1: CACCCGUGCAAAAUUGCAGGGGUCUAAAACGACCUGAAUAUUUCAGAUCAAA
RNA 2: GGGAAUGGAUCCACAUCUACGAAUUCGUUUAUUGAUCUGAAAUAUUCAGGUCGUGCAGAUCGGAAGAGCACACGU
B3: target 3 insG 3' of 8,insG 3' of 7 (mixed)
RNA 1: CACCCGUGCAAAAUUGCAGGGGUCUAAAACGACCUGAAUAUUUCAGAUCAAA
RNA 2: GGGAAUGGAUCCACAUCUACGAAUUCGUUUUUGAUCUGAAAUAUGUGCAGGUCUGCAGAUCGGAAGAGCACACGU
B4: target 3 insU 3' of 22,insA 3' of 21 (mixed)
RNA 1: CACCCGUGCAAAAUUGCAGGGGUCUAAAACGACCUGAAUAUUUCAGAUCAAA
RNA 2: GGGAAUGGAUCCACAUCUACGAAUUCGUUUUUAUGAUCUGAAAUAUUCAGGUCUGCAGAUCGGAAGAGCACACGU
B5: target 3 del5 (mixed)
RNA 1: CACCCGUGCAAAAUUGCAGGGGUCUAAAACGACCUGAAUAUUUCAGAUCAAA
RNA 2: GGGAAUGGAUCCACAUCUACGAAUUCGUUUUUGAUCUGAAAUAUUCGGUCUGCAGAUCGGAAGAGCACACGU
B6: target 3 U2A,A12G (mixed)
RNA 1: CACCCGUGCAAAAUUGCAGGGGUCUAAAACGACCUGAAUAUUUCAGAUCAAA
RNA 2: GGGAAUGGAUCCACAUCUACGAAUUCGUUUUUGAUCUGAGAUAUUCAGGACUGCAGAUCGGAAGAGCACACGU
B7: target 3 C1U,A12G (mixed)
RNA 1: CACCCGUGCAAAAUUGCAGGGGUCUAAAACGACCUGAAUAUUUCAGAUCAAA
RNA 2: GGGAAUGGAUCCACAUCUACGAAUUCGUUUUUGAUCUGAGAUAUUCAGGUUUGCAGAUCGGAAGAGCACACGU
B8: target 3 C1U,G3U (mixed)
RNA 1: CACCCGUGCAAAAUUGCAGGGGUCUAAAACGACCUGAAUAUUUCAGAUCAAA
RNA 2: GGGAAUGGAUCCACAUCUACGAAUUCGUUUUUGAUCUGAAAUAUUCAGUUUUGCAGAUCGGAAGAGCACACGU
B9: target 3 C6U,A11C (mixed)
RNA 1: CACCCGUGCAAAAUUGCAGGGGUCUAAAACGACCUGAAUAUUUCAGAUCAAA
RNA 2: GGGAAUGGAUCCACAUCUACGAAUUCGUUUUUGAUCUGAACUAUUUAGGUCUGCAGAUCGGAAGAGCACACGU
B10: target 3 insG 3' of 10,insU 3' of 3 (mixed)
RNA 1: CACCCGUGCAAAAUUGCAGGGGUCUAAAACGACCUGAAUAUUUCAGAUCAAA
RNA 2: GGGAAUGGAUCCACAUCUACGAAUUCGUUUUUGAUCUGAAAUGAUUCAGGUUCUGCAGAUCGGAAGAGCACACGU
B11: target 3 U2C,U7G (mixed)
RNA 1: CACCCGUGCAAAAUUGCAGGGGUCUAAAACGACCUGAAUAUUUCAGAUCAAA
RNA 2: GGGAAUGGAUCCACAUCUACGAAUUCGUUUUUGAUCUGAAAUAUGCAGGCCUGCAGAUCGGAAGAGCACACGU
B12: target 3 insG 3' of 11,insU 3' of 4 (mixed)
RNA 1: CACCCGUGCAAAAUUGCAGGGGUCUAAAACGACCUGAAUAUUUCAGAUCAAA
RNA 2: GGGAAUGGAUCCACAUCUACGAAUUCGUUUUUGAUCUGAAAGUAUUCAGUGUCUGCAGAUCGGAAGAGCACACGU
B13: target 3 insG 3' of 16,insA 3' of 2 (mixed)
RNA 1: CACCCGUGCAAAAUUGCAGGGGUCUAAAACGACCUGAAUAUUUCAGAUCAAA
RNA 2: GGGAAUGGAUCCACAUCUACGAAUUCGUUUUUGAUCGUGAAAUAUUCAGGUACUGCAGAUCGGAAGAGCACACGU
B14: target 3 insG 3' of 9,insG 3' of 5 (mixed)
RNA 1: CACCCGUGCAAAAUUGCAGGGGUCUAAAACGACCUGAAUAUUUCAGAUCAAA
RNA 2: GGGAAUGGAUCCACAUCUACGAAUUCGUUUUUGAUCUGAAAUAGUUCAGGGUCUGCAGAUCGGAAGAGCACACGU
B15: target 3 MT (mixed)
RNA 1: CACCCGUGCAAAAUUGCAGGGGUCUAAAACGACCUGAAUAUUUCAGAUCAAA
RNA 2: GGGAAUGGAUCCACAUCUACGAAUUCGUUUUUGAUCUGAAAUAUUCAGGUCUGCAGAUCGGAAGAGCACACGU
B16: target 3 insA 3' of 22,insC 3' of 2 (mixed)
RNA 1: CACCCGUGCAAAAUUGCAGGGGUCUAAAACGACCUGAAUAUUUCAGAUCAAA
RNA 2: GGGAAUGGAUCCACAUCUACGAAUUCGUUUAUUGAUCUGAAAUAUUCAGGUCCUGCAGAUCGGAAGAGCACACGU
B17: target 3 insU 3' of 3,insA 3' of 3 (mixed)
RNA 1: CACCCGUGCAAAAUUGCAGGGGUCUAAAACGACCUGAAUAUUUCAGAUCAAA
RNA 2: GGGAAUGGAUCCACAUCUACGAAUUCGUUUUUGAUCUGAAAUAUUCAGGUAUCUGCAGAUCGGAAGAGCACACGU
B18: target 3 insC 3' of 11 (mixed)
RNA 1: CACCCGUGCAAAAUUGCAGGGGUCUAAAACGACCUGAAUAUUUCAGAUCAAA
RNA 2: GGGAAUGGAUCCACAUCUACGAAUUCGUUUUUGAUCUGAAACUAUUCAGGUCUGCAGAUCGGAAGAGCACACGU
B19: target 3 del8,del22 (mixed)
RNA 1: CACCCGUGCAAAAUUGCAGGGGUCUAAAACGACCUGAAUAUUUCAGAUCAAA
RNA 2: GGGAAUGGAUCCACAUCUACGAAUUCGUUUUGAUCUGAAAUAUCAGGUCUGCAGAUCGGAAGAGCACACGU
B20: target 3 G3U,G4C (mixed)
RNA 1: CACCCGUGCAAAAUUGCAGGGGUCUAAAACGACCUGAAUAUUUCAGAUCAAA
RNA 2: GGGAAUGGAUCCACAUCUACGAAUUCGUUUUUGAUCUGAAAUAUUCACUUCUGCAGAUCGGAAGAGCACACGU
B21: target 3 C1U (mixed)
RNA 1: CACCCGUGCAAAAUUGCAGGGGUCUAAAACGACCUGAAUAUUUCAGAUCAAA
RNA 2: GGGAAUGGAUCCACAUCUACGAAUUCGUUUUUGAUCUGAAAUAUUCAGGUUUGCAGAUCGGAAGAGCACACGU
B22: target 3 insC 3' of 7,insC 3' of 5 (mixed)
RNA 1: CACCCGUGCAAAAUUGCAGGGGUCUAAAACGACCUGAAUAUUUCAGAUCAAA
RNA 2: GGGAAUGGAUCCACAUCUACGAAUUCGUUUUUGAUCUGAAAUAUUCCACGGUCUGCAGAUCGGAAGAGCACACGU
B23: target 3 insG 3' of 9,insA 3' of 7 (mixed)
RNA 1: CACCCGUGCAAAAUUGCAGGGGUCUAAAACGACCUGAAUAUUUCAGAUCAAA
RNA 2: GGGAAUGGAUCCACAUCUACGAAUUCGUUUUUGAUCUGAAAUAGUUACAGGUCUGCAGAUCGGAAGAGCACACGU
B24: target 3 C1G (mixed)
RNA 1: CACCCGUGCAAAAUUGCAGGGGUCUAAAACGACCUGAAUAUUUCAGAUCAAA
RNA 2: GGGAAUGGAUCCACAUCUACGAAUUCGUUUUUGAUCUGAAAUAUUCAGGUGUGCAGAUCGGAAGAGCACACGU
B25: target 3 insU 3' of 22,insU 3' of 22 (mixed)
RNA 1: CACCCGUGCAAAAUUGCAGGGGUCUAAAACGACCUGAAUAUUUCAGAUCAAA
RNA 2: GGGAAUGGAUCCACAUCUACGAAUUCGUUUUUUUGAUCUGAAAUAUUCAGGUCUGCAGAUCGGAAGAGCACACGU
B26: target 1 insC 3' of 14 (mixed)
RNA 1: CACCCGUGCAAAAAUGCAGGGGUCUAAAACUGAGCGGAUAACCUCUCUAUGG
RNA 2: GGGAAUGGAUCCACAUCUACGAAUUCGUACCAUAGAGACGGUUAUCCGCUCACCGAGAUCGGAAGAGCACACGU
B27: target 1 A20U,C21A (mixed)
RNA 1: CACCCGUGCAAAAAUGCAGGGGUCUAAAACUGAGCGGAUAACCUCUCUAUGG
RNA 2: GGGAAUGGAUCCACAUCUACGAAUUCGUACAUUAGAGAGGUUAUCCGCUCACCGAGAUCGGAAGAGCACACGU

The target in the data set is T1, EsCas13d, nuclease-dead. The data set can be described thus: crRNA (strand 1, pre-loaded); Mg2+; 40 mM Tris-HCl pH 7.5, 150 mM NaCl, 6 mM MgCl2, 1 mM DTT, 0.1% Tween-20, 0.2 mg/ml BSA; 25 C; 10 min per concentration, then washed. Particulars: tags: His6-TwinStrep-SUMO cleaved; N-terminal SNAP kept (SNAP-Surface 488); label: 3' end held by stalled T7 RNA polymerase.
Consider B1, for which binding was characterised by a dissociation constant (Kd) of 71 ± 18 nM.
On to B2, for which binding was characterised by a dissociation constant (Kd) of 34.5 ± 7.5 nM.
Regarding B3, the Kd was found to be 37.4 ± 3.15 nM.
Molecule B4 yielded a Kd of 28 ± 4 nM.
Consider B5, for which the Kd stood at 65.5 ± 12.5 nM.
In turn, B6 gave a Kd of 38 ± 6 nM.
As for B7, binding was characterised by a dissociation constant (Kd) of 60 ± 13.5 nM.
In turn, B8 registered a Kd of 45.5 ± 11.5 nM.
The molecule B9 yielded a Kd of 63 ± 17.6 nM.
Regarding B10, the affinity, expressed as Kd, was 111 ± 28.5 nM.
B11 gave a Kd of 86 ± 33 nM.
With B12, the Kd was found to be 55.5 ± 10.5 nM.
With B13, the affinity, expressed as Kd, was 75 ± 30 nM.
For B14 the value was 60 ± 13.5 nM; for B15, 15.6 ± 0.185 nM.
On to B16, for which the Kd was 84.5 ± 23.5 nM.
As for B17, the affinity, expressed as Kd, was 28.7 ± 3 nM.
For the molecule B18, the Kd was 83.5 ± 29 nM.
As to B19, the affinity, expressed as Kd, was 74.5 ± 13 nM.
B20 displayed a Kd of 10.5 ± 1 nM.
For B21 the value was 25.1 ± 3.15 nM; for B22, 108 ± 18.5 nM.
The figure for B23 is 43.5 ± 5.5 nM.
On to B24, for which the Kd was 28.8 ± 4.15 nM.
As to B25, the Kd was 24.1 ± 3 nM.
In turn, B26 showed a Kd of 43 ± 6 nM.
For the molecule B27, the Kd worked out at 29 ± 5 nM.
